According to publication PMC8135088:

Legend:
purified protein [1] = substrate: OC[C@H]1OC[C@H](O)[C@@H](O)[C@@H]1O; test: purified protein; assay type: biochemical, Phanerodontia chrysosporium; details: 50 mM sodium phosphate pH 7.0, electron acceptor O2
purified protein [2] = substrate: OC[C@H]1OC(O)[C@H](O)[C@@H](O)[C@@H]1O; test: purified protein; assay type: biochemical, Phanerodontia chrysosporium; details: 50 mM sodium phosphate pH 7.0, electron acceptor O2

| Protein | Km (purified protein [1]) | kcat (purified protein [1]) | kcat/Km (purified protein [1]) | Km (purified protein [2]) | kcat (purified protein [2]) | kcat/Km (purified protein [2]) |
| --- | --- | --- | --- | --- | --- | --- |
| PcPOX (pyranose 2-oxidase from Phanerochaete chrysosporium) (Phanerodontia chrysosporium) (protein) MFLDTTPFRADEPYDVFIAGSGPIGATFAKLCVDANLRVCMVEIGAADSFTSKPMKGDPNAPRSVQFGPGQVPIPGYHKKNEIEYQKDIDRFVNVIKGALSTCSIPTSNNHIATLDPSVVSNSLDKPFISLGKNPAQNPFVNLGAEAVTRGVGGMSTHWTCATPEFFAPADFNAPHRERPKLSTDAAEDARIWKDLYAQAKEIIGTSTTEFDHSIRHNLVLRKYNDIFQKENVIREFSPLPLACHRLTDPDYVEWHATDRILEELFTDPVKRGRFTLLTNHRCTKLVFKHYRPGEENEVDYALVEDLLPHMQNPGNPASVKKIYARSYVVACGAVATAQVLANSHIPPDDVVIPFPGGEKGSGGGERDATIPTPLMPMLGKYITEQPMTFCQVVLDSSLMEVVRNPPWPGLDWWKEKVARHVEAFPNDPIPIPFRDPEPQVTIKFTEEHPWHVQIHRDAFSYGAVAENMDTRVIVDYRFFGYTEPQEANELVFQQHYRDAYDMPQPTFKFTMSQDDRARARRMMDDMCNIALKIGGYLPGSEPQFMTPGLALHLAGTTRCGLDTQKTVGNTHCKVHNFNNLYVGGNGVIETGFAANPTLTSICYAIRASNDIIAKFGRHRG | 18.9 ± 4.4 mM | 82.5 ± 10.3 s⁻¹ | 4400 M⁻¹ s⁻¹ | 0.978 ± 0.156 mM | 115 ± 2 s⁻¹ | 120000 M⁻¹ s⁻¹ |
| PcPOX (pyranose 2-oxidase from Phanerochaete chrysosporium) (Phanerodontia chrysosporium; A551L) (protein) MFLDTTPFRADEPYDVFIAGSGPIGATFAKLCVDANLRVCMVEIGAADSFTSKPMKGDPNAPRSVQFGPGQVPIPGYHKKNEIEYQKDIDRFVNVIKGALSTCSIPTSNNHIATLDPSVVSNSLDKPFISLGKNPAQNPFVNLGAEAVTRGVGGMSTHWTCATPEFFAPADFNAPHRERPKLSTDAAEDARIWKDLYAQAKEIIGTSTTEFDHSIRHNLVLRKYNDIFQKENVIREFSPLPLACHRLTDPDYVEWHATDRILEELFTDPVKRGRFTLLTNHRCTKLVFKHYRPGEENEVDYALVEDLLPHMQNPGNPASVKKIYARSYVVACGAVATAQVLANSHIPPDDVVIPFPGGEKGSGGGERDATIPTPLMPMLGKYITEQPMTFCQVVLDSSLMEVVRNPPWPGLDWWKEKVARHVEAFPNDPIPIPFRDPEPQVTIKFTEEHPWHVQIHRDAFSYGAVAENMDTRVIVDYRFFGYTEPQEANELVFQQHYRDAYDMPQPTFKFTMSQDDRARARRMMDDMCNIALKIGGYLPGSEPQFMTPGLLLHLAGTTRCGLDTQKTVGNTHCKVHNFNNLYVGGNGVIETGFAANPTLTSICYAIRASNDIIAKFGRHRG | 26.9 ± 3.5 mM | 0.00696 ± 0.00027 s⁻¹ | 0.26 M⁻¹ s⁻¹ | 3.44 ± 1.15 mM | 0.00659 ± 0.00129 s⁻¹ | 1.9 M⁻¹ s⁻¹ |
| PcPOX (pyranose 2-oxidase from Phanerochaete chrysosporium) (Phanerodontia chrysosporium; A551N) (protein) MFLDTTPFRADEPYDVFIAGSGPIGATFAKLCVDANLRVCMVEIGAADSFTSKPMKGDPNAPRSVQFGPGQVPIPGYHKKNEIEYQKDIDRFVNVIKGALSTCSIPTSNNHIATLDPSVVSNSLDKPFISLGKNPAQNPFVNLGAEAVTRGVGGMSTHWTCATPEFFAPADFNAPHRERPKLSTDAAEDARIWKDLYAQAKEIIGTSTTEFDHSIRHNLVLRKYNDIFQKENVIREFSPLPLACHRLTDPDYVEWHATDRILEELFTDPVKRGRFTLLTNHRCTKLVFKHYRPGEENEVDYALVEDLLPHMQNPGNPASVKKIYARSYVVACGAVATAQVLANSHIPPDDVVIPFPGGEKGSGGGERDATIPTPLMPMLGKYITEQPMTFCQVVLDSSLMEVVRNPPWPGLDWWKEKVARHVEAFPNDPIPIPFRDPEPQVTIKFTEEHPWHVQIHRDAFSYGAVAENMDTRVIVDYRFFGYTEPQEANELVFQQHYRDAYDMPQPTFKFTMSQDDRARARRMMDDMCNIALKIGGYLPGSEPQFMTPGLNLHLAGTTRCGLDTQKTVGNTHCKVHNFNNLYVGGNGVIETGFAANPTLTSICYAIRASNDIIAKFGRHRG | 65.7 ± 4.5 mM | 0.253 ± 0.006 s⁻¹ | 3.8 M⁻¹ s⁻¹ | 12.1 ± 0.3 mM | 0.496 ± 0.021 s⁻¹ | 41 M⁻¹ s⁻¹ |
